Laboratory results taken from the supplement of paper PMC9170038.

Tested on: MS2 coat protein
Assay: apparent KD of MS2 coat protein; designed switch direction (-1 OFF switch, 1 ON switch): 1; higher = weaker reporter binding
How it was run: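 Apparent KD, taken as the median over clusters for each design, was obtained by curve-fitting normalised cluster fluorescence. Designed RNA switches had been transcribed on Illumina chips by stalled E. coli RNA polymerase and titrated with SNAP-549-labelled MS2 coat protein, doubling from 0.7 or 1.5 nM to 3 µM.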

[1] = input ligand: microRNA oligo, concentration not stated
[2] = Eterna round: R95, input ligand: FMN 200 uM
[3] = Eterna round: R95, input ligand: microRNA oligo, concentration not stated
[4] = Eterna round: R95, input ligand: none

GGUGCGAAAUAAGCCUACAUGAGGAUCACCCAUGUAUGUAGGCAGGAUAUCGUUUGCAAAGCAAACGAGAAGGGCUGACGCACC [Mat - Same State NG 3 - JL Mod - D50] (Eterna round: R96, puzzle: Same State NG 3)
apparent KD of MS2 coat protein (input ligand: FMN 200 uM): 31.1 nM
apparent KD of MS2 coat protein [1]: 52.6 nM
apparent KD of MS2 coat protein (input ligand: none): 94.5 nM

GACAAUCUAUCUGAGGAUAUCAUGAAGAAAACAUGAGGAUCACCCAUGUGCAGGAUAACUGCAAAUGAGAAGGCAGAUAGAUUGU [Mat - Same State 2 - Mod - D6] (puzzle: Same State 2)
apparent KD of MS2 coat protein [2]: 17.1 nM
apparent KD of MS2 coat protein [3]: 17.8 nM
apparent KD of MS2 coat protein [4]: 22.4 nM

GCUCGGACGAUGACCCACAUGAGGAUCACCCAUGUGCUUGGGCAGGAUAUCUAGAUUAAGGAUGUAGAGAAGGGUCGACCGAGC [SameState NG3 #29] (Eterna round: R96, puzzle: Same State NG 3)
apparent KD of MS2 coat protein (input ligand: FMN 200 uM): 345 nM
apparent KD of MS2 coat protein [1]: 90.3 nM
apparent KD of MS2 coat protein (input ligand: none): 211 nM

AUAAAACAUGAGGAUCACCCAUGUCAACAAAGUCGAGGAUAUGGGCAAAUAAAAUAAGAACCAGAAGGCGAAUAUU [salish99_ss1_r3_037] (Eterna round: R96, puzzle: Same State 1)
apparent KD of MS2 coat protein (input ligand: FMN 200 uM): 43.8 nM
apparent KD of MS2 coat protein [1]: 262 nM
apparent KD of MS2 coat protein (input ligand: none): 261 nM

CCGUUGAUAGGACAGGAUAUGACUGUCGUCACAUGAGGAUCACCCAUGUCCCGGCAAUGCCACCGUUAGAAGGGUCCCGUCUCGG [Beenraor] (puzzle: Same State 2)
apparent KD of MS2 coat protein [3]: 16.9 nM

CGACGCUGUCGAGAGGAUAUGCGGUGAUGGACAUGAGGAUCACCCAUGUUAGCGAUAGCAUUACGGUAGAAGGCUCUACAGCUGU [Soteed Omei mod 5] (puzzle: Same State 2)
apparent KD of MS2 coat protein [2]: 20.4 nM
apparent KD of MS2 coat protein [3]: 202 nM
apparent KD of MS2 coat protein [4]: 118 nM

GUAGCAUACCGAGGAUAUUCAUACAUGAGGAUCACCCAUGUUUAAUUAUAGGCCAAAAGGCCUUGGGAGAAGGCGGAAUGCUAC [Xeonanis - 20 Mod14] (Eterna round: R96, puzzle: Same State NG 2)
apparent KD of MS2 coat protein (input ligand: FMN 200 uM): 8.39 nM
apparent KD of MS2 coat protein [1]: 10.1 nM
apparent KD of MS2 coat protein (input ligand: none): 14.4 nM

GUUACAUGAGGAUCACCCAUGUGUGUGUGGGAGUGAGUGGCUUAGGAUAUCUAUGAUUUUAGUUGAGAGAAGGAGGAUUGCUGU [SS-NG3-LRO08] (Eterna round: R96, puzzle: Same State NG 3)
apparent KD of MS2 coat protein (input ligand: FMN 200 uM): 439 nM
apparent KD of MS2 coat protein [1]: 158 nM
apparent KD of MS2 coat protein (input ligand: none): 347 nM

UUGCUCGUGUGAGGAUAUGCCGCCGUUUCGGCUGCAGAAGGUACUCUUGUACAUGAGGAUCACCCAUGUCUCUGUUGUUUCGUG [salish99_SSNG1_r04_938] (Eterna round: R96, puzzle: Same State NG 1)
apparent KD of MS2 coat protein [1]: 43.6 nM

AAUAUACAUGAGGAUCACCCAUGUUAGUAAAUGACAGGAUAUGCAAUAAAUAAAUAAUAAGCAGAAGGGUCUAAUA [JMF's solution 1] (puzzle: Same State 1)
apparent KD of MS2 coat protein [2]: 13.7 nM
apparent KD of MS2 coat protein [3]: 14.2 nM
apparent KD of MS2 coat protein [4]: 16 nM

GUAGCAUACCGAGGAUAUUCAUAUUACAUGAGGAUCACCCAUGUAAGGCCACAUUAGUGGCCUUGGGAGAAGGCGGAAUGCUAC [Xeonanis - 20 Mod42] (Eterna round: R96, puzzle: Same State NG 2)
apparent KD of MS2 coat protein (input ligand: FMN 200 uM): 18.3 nM
apparent KD of MS2 coat protein [1]: 30 nM
apparent KD of MS2 coat protein (input ligand: none): 180 nM

AUAUACUGGGUAGGAUAUCUAGGAUAUGGGAAAGACUAAGUCUGUAGGUCACCUAACCCAGAUGGAGAGAAGGACCCAACACAC [pwkr ssNG2 2FMN + F9.42] (Eterna round: R96, puzzle: Same State NG 2)
apparent KD of MS2 coat protein (input ligand: FMN 200 uM): 16.1 nM
apparent KD of MS2 coat protein [1]: 5.2 nM
apparent KD of MS2 coat protein (input ligand: none): 42.6 nM

UUGAAGAAUUAAGGAUAUUGAAUACAUAUGUUUAACAUGAGGAUCACCCAUGUGGGUUGCGGUAUCGAGAAGGUAAAUUACUAA [Mat - Same State NG 2 - JL mod - D1] (Eterna round: R96, puzzle: Same State NG 2)
apparent KD of MS2 coat protein (input ligand: FMN 200 uM): 140 nM
apparent KD of MS2 coat protein [1]: 80.5 nM
apparent KD of MS2 coat protein (input ligand: none): 112 nM

AUCAAAACAAGUUGCAGUGUUCGUCUUUCACAUGAGGAUCACCCAUGUAAUAGCCCAGCGGAAGCACUCGGGCCACC [Arzasola] (puzzle: Sensor for hsa-mir-208a)
apparent KD of MS2 coat protein [2]: 26.8 nM
apparent KD of MS2 coat protein [3]: 28.1 nM
apparent KD of MS2 coat protein [4]: 31.2 nM

CUAUCUACAGGUGUCAGUGCUCGUCUUAUACAUGAGGAUCACCCAUGUUAUAGCCCGGUGCUUGCGCUGGGCUGAUU [JL ViennaUCT Tearor mod 4] (puzzle: Sensor for hsa-mir-208a)
apparent KD of MS2 coat protein [2]: 54.8 nM
apparent KD of MS2 coat protein [3]: 14.2 nM
apparent KD of MS2 coat protein [4]: 66.9 nM

GGUGCCAAAUAAGCCUACAUGAGGAUCACCCAUGUAUGUAGGCAGGAUAUCGUUUGCAAAGCAAACGAGAAGGGCUGAGGCACC [Mat - Same State NG 3 - JL Mod - D53] (Eterna round: R96, puzzle: Same State NG 3)
apparent KD of MS2 coat protein (input ligand: FMN 200 uM): 26.1 nM
apparent KD of MS2 coat protein [1]: 42.7 nM
apparent KD of MS2 coat protein (input ligand: none): 81 nM

UAAAAUAACACAGGAUAUGCAGACAACUCGUCGGCAGAAGGGUGAGACAUGAGGAUCACCCAUGUAAAAUAAGGGCGCCGCCCG [Diatera] (Eterna round: R96, puzzle: Same State NG 1)
apparent KD of MS2 coat protein (input ligand: FMN 200 uM): 995 nM
apparent KD of MS2 coat protein [1]: 219 nM
apparent KD of MS2 coat protein (input ligand: none): 777 nM

GGUGAGAGAGUCAAGGAUAUUAAAGGAGAGACAUGAGGAUCACCCAUGUAAGAGAGAGAGGAGAGUGAGAAGGUGAAGAGAGUGG [Altered State 2-25 - Jieux - Same State 2] (puzzle: Same State 2)
apparent KD of MS2 coat protein [2]: 30.4 nM
apparent KD of MS2 coat protein [3]: 25 nM
apparent KD of MS2 coat protein [4]: 60.6 nM

AACAUGAGGAUCACCCAUGUGGAAUACUGAAGCAGCUCAGGGAAGGAUAUGGUUGACACCCUCGACCAGAAGGUCCAAAUUAAA [Onarar] (Eterna round: R96, puzzle: Same State NG 3)
apparent KD of MS2 coat protein (input ligand: FMN 200 uM): 63.3 nM
apparent KD of MS2 coat protein [1]: 98.2 nM
apparent KD of MS2 coat protein (input ligand: none): 121 nM

AUUAUUUCAUGAGGAUAUGGCACCUUAUUGGUGCCAGAAGGCAUGUCUAUUGACAUGAGGAUCACCCAUGUAUUAUAUUAUAUA [Eli NG1ss - 88] (Eterna round: R96, puzzle: Same State NG 1)
apparent KD of MS2 coat protein (input ligand: FMN 200 uM): 57.4 nM
apparent KD of MS2 coat protein [1]: 658 nM
apparent KD of MS2 coat protein (input ligand: none): 493 nM

GAGUAGUUGAAAGGAUAUAGAUUGUUGUAGGAUCUAGAAGGUUCUAACAUGAGGAUCACCCAUGUAGGACUAUUCCUGUGUAUC [Parity 87 - Jieux - Same State NG 1] (Eterna round: R96, puzzle: Same State NG 1)
apparent KD of MS2 coat protein (input ligand: FMN 200 uM): 11.5 nM
apparent KD of MS2 coat protein [1]: 8.94 nM
apparent KD of MS2 coat protein (input ligand: none): 13.1 nM

AGGCAAGCUUUUUGCUGGUAUGGAGGAUAACAUGAGGAUCACCCAUGUAUUGGAGGUGUUGUGGAUUUGAGAAAGAA [JR_SHM208A_Sub004] (puzzle: Sensor for hsa-mir-208a)
apparent KD of MS2 coat protein [2]: 74 nM
apparent KD of MS2 coat protein [3]: 94.6 nM
apparent KD of MS2 coat protein [4]: 103 nM

UGGAUCUAGGCUUGCCUGGGUCCAUGCUGACAUGAGGAUCACCCAUGUGCAUUCUAUAAGCUUUUUGCUUGUCAGCU (puzzle: Sensor for hsa-mir-208a)
apparent KD of MS2 coat protein [2]: 373 nM
apparent KD of MS2 coat protein [3]: 91 nM
apparent KD of MS2 coat protein [4]: 441 nM

GGUCCAUCAUGAGGAUAUGGCACCUUAUUGGUGCCAGAAGGCAUGUCUAUUAGACAUGAGGAUCACCCAUGUAUAAAUUGGACC [Eli NG1ss - 91] (Eterna round: R96, puzzle: Same State NG 1)
apparent KD of MS2 coat protein (input ligand: FMN 200 uM): 108 nM
apparent KD of MS2 coat protein [1]: 192 nM
apparent KD of MS2 coat protein (input ligand: none): 1130 nM

GAGGAACAUGAGGAUCACCCAUGUAGGAUGGGACAAGGAUAUGUAGAUAGCGGAGGAGAGACAGAAGGUGUAGGAA [JR_SS1_Sub053] (puzzle: Same State 1)
apparent KD of MS2 coat protein [2]: 354 nM
apparent KD of MS2 coat protein [3]: 431 nM
apparent KD of MS2 coat protein [4]: 483 nM

GGAGCCGGCCUAGGAUAUUUCAUUAUUAAACAUGAGGAUCACCCAUGUAGGCCAGAAGGCCUUGGGAAGAAGGAGGUCGGCUCC [Loop Effect - U24,U26,U28] (Eterna round: R96, puzzle: Same State NG 2)
apparent KD of MS2 coat protein (input ligand: FMN 200 uM): 17.1 nM
apparent KD of MS2 coat protein [1]: 49.6 nM
apparent KD of MS2 coat protein (input ligand: none): 68.5 nM

GUACAUAUUAUAGGAUAUCACGUCGUUUAGACGUGAGAAGGAUAAUCCCACAUGAAUAUUAAUACAUGAGGAUCACCCAUGUAC [SSNG1/18-A3] (Eterna round: R96, puzzle: Same State NG 1)
apparent KD of MS2 coat protein (input ligand: FMN 200 uM): 64.2 nM
apparent KD of MS2 coat protein [1]: 48 nM
apparent KD of MS2 coat protein (input ligand: none): 63.9 nM

GUCAGCGAUUGAGGAUAUCACGUCGUUUAGACGUGAGAAGGCGAUCAUAACAUGAGGAUCACCCAUGUAUUACAUGAAGCUGAC [SSNG1/5-A3] (Eterna round: R96, puzzle: Same State NG 1)
apparent KD of MS2 coat protein (input ligand: FMN 200 uM): 17.2 nM
apparent KD of MS2 coat protein [1]: 20.1 nM
apparent KD of MS2 coat protein (input ligand: none): 32.6 nM

ACGCCCUCAGUAGGAUAUGGGAAAGGAAGUGUACCAGAAGGACUGGUUGAACAUGAGGAUCACCCAUGUUCAACGACAGGGCGA [PowerStrip SSNG 1.25] (Eterna round: R96, puzzle: Same State NG 1)
apparent KD of MS2 coat protein (input ligand: FMN 200 uM): 18.9 nM
apparent KD of MS2 coat protein [1]: 14 nM
apparent KD of MS2 coat protein (input ligand: none): 22.8 nM

AUAAAACAUGAGGAUCACCCAUGUCAACAAAGUCGAGGAUAUGGGCAAAUAAAAUAAGAACCAGAAGGCGAAUAUU [salish99_ss1_r3_037] (puzzle: Same State 1)
apparent KD of MS2 coat protein [2]: 31 nM
apparent KD of MS2 coat protein [3]: 382 nM
apparent KD of MS2 coat protein [4]: 750 nM

GAGUGACGAUUAGGAUAUACAGUGAUAAUGAUAGUAGAAGGAAUUGACAUGAGGAUCACCCAUGUAGGACUAAUCCAGAGAGAG [Parity 29 - Jieux - Same State NG 1] (Eterna round: R96, puzzle: Same State NG 1)
apparent KD of MS2 coat protein (input ligand: FMN 200 uM): 86.5 nM
apparent KD of MS2 coat protein [1]: 39.9 nM
apparent KD of MS2 coat protein (input ligand: none): 57.8 nM
